Measured values: patent publication US20250297029A1 (NANJING LEGEND BIOTECH, published 2025)

How the values were obtained:
GPC3 [1] = biological target: T1, GPC3 (UniProt P51654 25-559, limits assumed); test: SPR as in Example 1 (Biacore T200; scFv-Fc captured, GPC3 in flow)
T1 construct: also called antigen GPC3; Glypican 3
Description: (§1) The humanized VLs (VL1 and VL1.M2) were connected to humanized VHs (VH2, VH2.M1, VH2.M5 and VH2.M6) with a (G4S)₃ linker (SEQ ID NO: 10) to construct humanized scFvs. These scFvs were expressed with a C-terminal Fc tag in HEK293 cells. The crude scFv proteins secreted to the cell culture supernatant were used for binding affinity determination using surface plasmon resonance (SPR) on a Biacore T200 machine. Briefly, the scFv protein was captured on the sensor chip pre-coated with goat-anti-human Fc polyclonal antibody (pAb) (Jackson ImmunoResearch, cat #109-005-098) via the interaction between pAb and the Fc tag, then the antigen GPC3 concentration ranging from 10 nM to 320 nM flowed through the sensor chip. After 100 s of association, running buffer (10 mM HEPES, 150 mM NaCl, 3 mM EDTA, 0.005% Tween-20, pH 7.4) flowed through the sensor chip to allow the scFv-GPC3 complex to dissociation. The sensor chip was regenerated using 50 mM HCl between cycles.
To further improve the humanization of anti-GPC3 scFvs, additional amino acid residues in VH1 and VL1 were mutated to their human germline counterparts. In HCDR2 of VH2.M6, mutations K54S, T55G or both were introduced, yielding VH2.M8 (SEQ ID NO: 11), VH2.M9 (SEQ ID NO: 12) and VH2.M10 (SEQ ID NO: 13) sequences, respectively. Mutation D57S was introduced to VH2.M6, yielding VH2.M11 sequence (SEQ ID NO: 14). All three additional mutations was introduced to VH2.M6, yielding VH2.M12 sequence (SEQ ID NO: 15). Similarly for VL1.M2, an additional N35K mutation was introduced to LCDR1, yielding VL1.M3 (SEQ ID NO: 16). Additional S94M, N96G and V99W mutations were introduced to LCDR3 of VL1.M2 individually, yielding VL1.M6 (SEQ ID NO: 17), VL1.M7 (SEQ ID NO: 18) and VL1.M8 (SEQ ID NO: 19) sequences, respectively. Additional S94M mutations was introduced to LCDR3 of VL1, yielding VL1.M9 (SEQ ID NO: 137) sequence. The binding affinity of these humanized variants were again determined using SPR as described in Example 1 (Table 5).

GPC3 [2] = biological target: T1, GPC3; test: SPR (Biacore T200); scFv-Fc captured by anti-human Fc pAb, GPC3 10-320 nM in flow
Description: as §1

GPC3 [3] = biological target: T1, GPC3; test: SPR as in Example 1; reference not named (VH2.M6 or mouse scFv)
Description: as §1
To further improve the humanization of anti-GPC3 scFvs, additional amino acid residues in VH1 and VL1 were mutated to their human germline counterparts. […] The binding affinity of these humanized variants were again determined using SPR as described in Example 1 (Table 5).

T1 sequence (P51654 25-559 limits assumed): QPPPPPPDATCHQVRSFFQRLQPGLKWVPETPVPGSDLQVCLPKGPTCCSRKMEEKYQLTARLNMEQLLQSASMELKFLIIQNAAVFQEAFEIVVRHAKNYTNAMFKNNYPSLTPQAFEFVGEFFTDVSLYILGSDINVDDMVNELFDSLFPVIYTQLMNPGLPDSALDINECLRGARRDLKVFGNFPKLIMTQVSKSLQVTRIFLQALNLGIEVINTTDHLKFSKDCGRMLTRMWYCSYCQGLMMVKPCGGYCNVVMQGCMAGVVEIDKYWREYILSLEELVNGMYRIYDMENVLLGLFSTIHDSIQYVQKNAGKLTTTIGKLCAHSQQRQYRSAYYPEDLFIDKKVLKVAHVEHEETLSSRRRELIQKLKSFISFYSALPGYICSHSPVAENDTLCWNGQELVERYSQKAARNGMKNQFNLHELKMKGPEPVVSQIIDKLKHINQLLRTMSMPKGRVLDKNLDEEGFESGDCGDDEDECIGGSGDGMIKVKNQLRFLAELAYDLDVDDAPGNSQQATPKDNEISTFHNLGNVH

| Kd (GPC3 [1]) [nM] | koff (GPC3 [1]) [s⁻¹] | kon (GPC3 [1]) [M⁻¹ s⁻¹] | Kd (GPC3 [2]) [nM] | koff (GPC3 [2]) [s⁻¹] | kon (GPC3 [2]) [M⁻¹ s⁻¹] | fold drop in binding affinity (GPC3 [3]) [fold] | Binder |
| --- | --- | --- | --- | --- | --- | --- | --- |
| 6.8 | 0.00048 | 70000 | 2.7 | 0.0005 | 190000 | – | VL1.M2-VH2.M6 humanized scFv (scFv, not shown: a dimerising Fc or GST, Crude scFv with Fc tag from HEK293 supernatant) scFv: DIVMTQTPLSLSVTPGQPASISCRSSQSLVHSNGNTYLHWYLQKPGQSPQLLIYKVSSRFSGVPDRFSGSGSGTDFTLKISRVEAEDVGVYYCSQNTHVPPTFGQGTKVEIKGGGGSGGGGSGGGGSQVQLVQSGAEVKKPGASVKVSCKASGYTFTSYEMHWVRQAPGQGLEWMGALDPKTGDTAYSQKFQGRVTLTADTSTSTVYMELSSLRSEDTAVYYCTRFYSYTYWGQGTLVTVSS |
| 13 | 0.00085 | 67000 | – | – | – | < 4 | VL1.M2-VH2.M11 humanized scFv (scFv, not shown: a dimerising Fc or GST) scFv: DIVMTQTPLSLSVTPGQPASISCRSSQSLVHSNGNTYLHWYLQKPGQSPQLLIYKVSSRFSGVPDRFSGSGSGTDFTLKISRVEAEDVGVYYCSQNTHVPPTFGQGTKVEIKGGGGSGGGGSGGGGSQVQLVQSGAEVKKPGASVKVSCKASGYTFTSYEMHWVRQAPGQGLEWMGALDPKTGSTAYSQKFQGRVTLTADTSTSTVYMELSSLRSEDTAVYYCTRFYSYTYWGQGTLVTVSS |
